Laboratory results from PMC9253517 (The Journal of Experimental Medicine, 2022).

B1: JN020 (antibody, V domains shown)
VH: EVQLVESGGDLVRRGESLRLSCAASGFTFSNHWMTWVRQAPGRGLEWVANIEGDGSDKYYVDSVKGRFTISRDNARNLLFLYMNALRGDDTAIYYCARHSATYHGLDQWGQGTLVTVSS
VL: LTQPRSVSGSPGQSVTISCTGTSSDVGGYIFVSWYQRHPGKAPKLILFHVDKRPSGVPDRFSGSRSGNTASLTISGLQTEDEADYDCYSFAGTIWMFGGGTRLTVL
B2: JN024 (antibody, V domains shown)
VH: QVQLQESGPKLMKPSQTLSLTCAVSGASIRSGGYYWSWIRQHPGKGLEWIGYIYYSGSTYYNPSLKSRATISVDTSKNQFSLKLTSVTAADTAVYYCARAGRWFGELFRGGGYFDYWGLGTLVTVSS
VL: AIRMTQSPSSLSASVGDRVTITCQASQDIGIFLNWYQQKSGEAPKLLIYDASNLETGVPSRFSGSGSGTDFIFIIRNLQPEDSATYYCQQHNHLPRVTFGPGTKVDIK
B3: JN021 (antibody, V domains shown)
VH: QLQLQESGPGLVKPSETLSLTCTVSGGSIRSRGYYWGWIRQPPGKGLEWIGSIDYSGSTYYNPSLKSRVTISVDTSKNQFSLKLNSVTAADTAVFYCASSADTYYDILTGYYKGWYIDYWGQGTLVTVSS
VL: LTQPRSVSGSPGQSVTISCAGTSSDVGGYNYVSWYQQHPGKAPKLMIFDVTKRPSGVPDRFSGSKSGNTASLTISGLQAEDDADYYCCSYAGSYTYWVFGGGTKLTVL
B4: JN006 (antibody, V domains shown)
VH: VQLVESGGGVVQPGRSLRLSCAASGFTFSNYVMHWVRQAPGKGLEWVAVMSSDGSIKYYADSVKGRFTVSRDNSKNTLYLQMNSLRPEDTAVYYCARGGRYSGSHTGDAFDIWGQGTMVTVSS
VL: SYELTQPPSVSVSPGQTARITCSGDALPNRYSYWYQQKPGQAPVLVIFKDSERPSGIPERFSGSSSGTTVTLTISGVQAEDEADYYCQSADSSGTWVFGGGTKLTVL
B5: JN112 (antibody, V domains shown)
VH: QVQLQESGPGLVKPSQTLSLTCTVSGGSISSGDYYWSWIRQPPGKGLEWIGYIYYSGSTYYNPSLKSRVTISVDTSKNQFSLKLSSVTAADTAVYYCAREGTIFGEPFDYWGQGTLVT
VL: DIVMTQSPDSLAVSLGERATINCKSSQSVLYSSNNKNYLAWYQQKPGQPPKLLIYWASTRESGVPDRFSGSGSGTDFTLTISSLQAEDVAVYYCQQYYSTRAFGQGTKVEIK
B6: JN231 (antibody, V domains shown)
VH: VQLVESGGGVVQPGRSLRLSCAASGFTFSSYGMHWVRQAPGKGLEWVAVISYDGSNKYYADSVKGRFTISRDNSKNTLYLQMNSLRAEDTAVYYCAKDSRYYDFWSGYLGPDEYYYYYYMDVWGKGTTVTVSS
VL: not shown
B7: JN220 (antibody, V domains shown)
VH: VQLVESGGGVVQPGRSLRLSCAASGFTFSSYTMHWVRQAPGKGLEWVAVISYDGSNKYYADSVKGRFTISRDNSKNTLYLQMNSLRAEDTAVYYCAISSGWYSMSGAFDIWGQGTMVTVSS
VL: QSALTQPRSVSGSPGQSVTISCTGTSSDVGGYNYVSWYQQHPGKAPKLMIYDVSKRPSGVPDRFSGSKSGNTASLTISGLQAEDEADYYCCSYAGSYRVFGTGTKVTVL
B8: JN011 (antibody, V domains shown)
VH: VQLVESGGGVVQPGRSLRLSCAASGFTFSSYAMHWVRQAPGKGLEWVAVISYDGSNKYYADSVKGRFTISRDNSKNTLYLQMNSLRAEDTAVYYCAGSLGEEYYYYYYGMDVWGQGTTVTVSS
VL: NFMLTQPHSVSESPGKTVTISCTGSSGSIASNYVQWYQQRPGSAPTTVIYEDNQRPSGVPDRFSGSIDSSSNSASLTISGLKTEDEADYYCQSYDSSNWVFGGGTKLTVL
B9: JN019 (antibody, V domains shown)
VH: VQLVESGGGVVQPGRSLRLSCAASGFTFSNYGMHWVRQAPGKGLEWVAFISYDANHKYSTNSVKGRFTISRDNSKNTLYLQMNSLRTEDTAVYYCASMDGLHPGTAQFYGMDVWGQGTTVTVSS
VL: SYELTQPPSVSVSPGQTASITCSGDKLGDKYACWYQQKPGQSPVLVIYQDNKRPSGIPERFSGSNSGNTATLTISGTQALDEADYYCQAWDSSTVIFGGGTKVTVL

Molecular target: SARS-CoV-2 Wuhan-Hu-1 NTD (SARS-CoV-2, UniProt P0DTC2)
Assay: cell-based or functional assay

| Binder | neutralisation IC50, WT (293TAce2) [mg/L] |
| --- | --- |
| B1 | > 1 |
| B2 | > 1 |
| B3 | > 1 |
| B4 | > 1 |
| B5 | > 1 |
| B6 | > 1 |
| B7 | > 1 |
| B8 | > 1 |
| B9 | 0.0345 |
